Data as given in patent US20080044360A1.
Bridge positions count the residues as written; N and C are the ends. Square brackets hold non-standard residues; d marks the D form. Primed or numbered codes have the meaning given here. Ends that are not written are not given here. * marks the point of attachment. GdDTPA‑thiourea = GdT is GdDTPA-thiourea (Gd-DTPA chelate attached through a thiourea); Phe(3,4-(OMe)2) = COc1ccc(C[C@H](N)C(=O)O)cc1OC; dBip = N[C@H](Cc1ccc(-c2ccccc2)cc1)C(=O)O; Phe(4-CN) = N#Cc1ccc(C[C@H](N)C(=O)O)cc1; Orn = NCCC[C@H](N)C(=O)O; Gd^T″ = GdDTPA-thiourea; Cbz = O=C(OCc1ccccc1)*; Dap = NC[C@H](N)C(=O)O; GdT = GdDTPA-thiourea

B1: SEQ ID NO 165 (peptide)
peptide: Q[dW]TCSGDEYTWHCNYE
modifications: disulfide 4-13 (inferred); not fully specified (N-terminus, C-terminus); printed as QwTCSGDEYTWHCNYE
B2: SEQ ID NO 166 (peptide)
peptide: QW[dT]CSGDEYTWHCNYE
modifications: disulfide 4-13 (inferred); not fully specified (N-terminus, C-terminus); printed as QWtCSGDEYTWHCNYE
B3: SEQ ID NO 168 (peptide)
peptide: QWTC[dS]GDEYTWHCNYE
modifications: disulfide 4-13 (inferred); not fully specified (N-terminus); printed as QWTCsGDEYTWHCNYE
B4: SEQ ID NO 173 (peptide)
peptide: QWTCSGDEYT[dW]HCNYE
modifications: disulfide 4-13 (inferred); not fully specified (N-terminus); printed as QWTCSGDEYTwHCNYE
B5: SEQ ID NO 175 (peptide)
peptide: QWTCSGDEYTWH[dC]NYE
modifications: disulfide 4-13 (inferred); not fully specified (N-terminus); printed as QWTCSGDEYTWHcNYE
B6: SEQ ID NO 176 (peptide)
peptide: QWTCSGDEYTWHC[dN]YE
modifications: disulfide 4-13 (inferred); not fully specified (N-terminus); printed as QWTCSGDEYTWHCnYE
B7: Compound ID 903 (peptide)
peptide: GdT-GQWHCTTRFPHH[dBip]CLYG
modifications: disulfide 5-14 (inferred); not fully specified (C-terminus); also: gadolinium complex (GdDTPA)

These binders were tested against human collagen type I, acid soluble, extracted from placenta (Sigma C7774) (human) (UniProt P02452) (assay: dried collagen assay).
human collagen type I, acid soluble, extracted from placenta (Sigma C7774) (human), sequence (P02452 162-1218 limits assumed, chain 1 of 2): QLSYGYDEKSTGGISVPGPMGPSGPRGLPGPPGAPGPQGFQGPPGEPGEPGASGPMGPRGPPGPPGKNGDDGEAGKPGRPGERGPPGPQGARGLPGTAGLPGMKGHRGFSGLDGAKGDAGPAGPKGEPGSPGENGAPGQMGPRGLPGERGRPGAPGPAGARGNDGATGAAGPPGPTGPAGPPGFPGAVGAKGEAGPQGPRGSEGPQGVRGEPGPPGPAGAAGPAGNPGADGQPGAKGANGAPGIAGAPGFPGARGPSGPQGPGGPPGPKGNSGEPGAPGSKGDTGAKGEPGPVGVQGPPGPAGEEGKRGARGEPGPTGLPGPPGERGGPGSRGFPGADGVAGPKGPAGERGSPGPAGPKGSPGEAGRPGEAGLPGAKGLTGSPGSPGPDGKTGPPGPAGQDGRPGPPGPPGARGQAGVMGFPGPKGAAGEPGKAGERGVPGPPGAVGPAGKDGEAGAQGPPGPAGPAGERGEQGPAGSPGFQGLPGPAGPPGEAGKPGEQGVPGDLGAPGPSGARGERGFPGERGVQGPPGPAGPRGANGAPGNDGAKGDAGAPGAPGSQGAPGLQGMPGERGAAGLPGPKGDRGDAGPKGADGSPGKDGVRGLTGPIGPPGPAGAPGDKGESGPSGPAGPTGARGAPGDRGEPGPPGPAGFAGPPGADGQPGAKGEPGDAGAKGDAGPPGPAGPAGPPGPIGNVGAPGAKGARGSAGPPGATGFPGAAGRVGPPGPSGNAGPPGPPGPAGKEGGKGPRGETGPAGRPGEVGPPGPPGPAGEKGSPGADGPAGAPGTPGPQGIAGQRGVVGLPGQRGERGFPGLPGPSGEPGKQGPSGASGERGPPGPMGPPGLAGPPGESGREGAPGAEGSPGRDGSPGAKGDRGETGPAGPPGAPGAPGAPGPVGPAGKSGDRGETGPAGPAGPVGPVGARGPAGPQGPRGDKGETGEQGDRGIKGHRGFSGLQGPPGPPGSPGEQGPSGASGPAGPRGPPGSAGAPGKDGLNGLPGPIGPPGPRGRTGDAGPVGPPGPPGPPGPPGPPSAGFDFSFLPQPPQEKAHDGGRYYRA
human collagen type I, acid soluble, extracted from placenta (Sigma C7774) (human), sequence (P08123 80-1119 limits assumed, chain 2 of 2, further chain): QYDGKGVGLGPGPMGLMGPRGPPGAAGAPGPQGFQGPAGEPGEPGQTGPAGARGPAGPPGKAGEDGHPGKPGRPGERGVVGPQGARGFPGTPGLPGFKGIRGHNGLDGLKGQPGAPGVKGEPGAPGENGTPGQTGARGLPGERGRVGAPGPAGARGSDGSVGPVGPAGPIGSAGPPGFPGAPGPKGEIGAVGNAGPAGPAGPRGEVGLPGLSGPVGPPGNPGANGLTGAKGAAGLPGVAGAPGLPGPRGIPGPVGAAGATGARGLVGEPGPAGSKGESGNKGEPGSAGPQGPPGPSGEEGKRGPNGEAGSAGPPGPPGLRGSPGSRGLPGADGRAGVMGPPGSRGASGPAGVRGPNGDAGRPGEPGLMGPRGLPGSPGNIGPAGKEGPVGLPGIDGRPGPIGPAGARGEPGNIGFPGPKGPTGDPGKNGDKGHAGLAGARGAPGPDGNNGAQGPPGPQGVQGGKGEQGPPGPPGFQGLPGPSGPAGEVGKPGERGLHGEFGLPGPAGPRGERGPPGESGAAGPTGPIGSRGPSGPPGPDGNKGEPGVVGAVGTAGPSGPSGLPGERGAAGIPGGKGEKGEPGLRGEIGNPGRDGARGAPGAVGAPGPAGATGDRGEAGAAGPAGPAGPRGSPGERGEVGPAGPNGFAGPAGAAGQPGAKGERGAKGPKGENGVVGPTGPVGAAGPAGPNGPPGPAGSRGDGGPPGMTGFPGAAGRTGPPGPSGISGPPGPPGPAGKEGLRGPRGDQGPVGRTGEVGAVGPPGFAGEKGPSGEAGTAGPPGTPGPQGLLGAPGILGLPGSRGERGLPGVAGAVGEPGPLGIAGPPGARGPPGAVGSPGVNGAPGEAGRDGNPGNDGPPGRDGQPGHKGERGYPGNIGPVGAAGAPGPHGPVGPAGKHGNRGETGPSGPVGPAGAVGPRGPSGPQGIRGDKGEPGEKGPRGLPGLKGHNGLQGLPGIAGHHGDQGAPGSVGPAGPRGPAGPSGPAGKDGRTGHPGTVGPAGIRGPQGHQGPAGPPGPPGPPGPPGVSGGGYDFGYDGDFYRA

Q: How did the % bound turn out when [dY][dH][dA][dC][dY][dQ][dA]G[dC][dW][dI][dW] (disulfide 4-9 (inferred); not fully specified (C-terminus)) [SEQ ID NO 163] was run?
A: 37%

Q: How did the % bound turn out when B1 was run?
A: 2%

Q: With B2 as the binder, how does the % bound read?
A: 2%

Q: With B3 as the binder, how does the % bound read?
A: 3%

Q: How did the % bound turn out when B4 was run?
A: 5%

Q: Which % bound does the source give for B5 here?
A: 2%

Q: With B6 as the binder, how does the % bound read?
A: 2%

Q: For {Gd^T″}-GQWHCTTRFPHAYCLYG (disulfide 5-14 (inferred)) [Compound ID 878], which % bound is on record?
A: 8%

Q: How did the % bound turn out when {Gd^T″}-GQWHCTTD[Phe(4-CN)]PHHYCLYG (disulfide 5-14 (inferred)) [Compound ID 883] was run?
A: 8%

Q: {Gd^T″}-GQWHCTTD[Phe(3,4-(OMe)2)]PHHYCLYG (disulfide 5-14 (inferred)) [Compound ID 893] was tested. Which % bound did it give?
A: 4%

Q: How did the % bound turn out when {Gd^T″}-GQWHCTTRFPHH[dF]CLYG (disulfide 5-14 (inferred); not fully specified (C-terminus)) [Compound ID 901] was run?
A: 2%

Q: Which % bound does the source give for B7 here?
A: 3%

Q: Which % bound does the source give for {Gd^T″}-GQWHCTTLFPHH[dY]CLYG (disulfide 5-14 (inferred); not fully specified (C-terminus)) [Compound ID 907] here?
A: 6%

Q: Cbz-GQWHCT[Dap](GdDTPA‑thiourea)RFPHHYCLYG (disulfide 5-14 (inferred); also: gadolinium complex (GdDTPA)) [Compound ID 939] was tested. Which % bound did it give?
A: 4%

Q: With Cbz-GQWHCT[Orn](GdDTPA‑thiourea)RFPHHYCLYG (disulfide 5-14 (inferred); also: gadolinium complex (GdDTPA)) [Compound ID 941] as the binder, how does the % bound read?
A: 8%

Each binder was assayed against rat collagen, acid soluble, type I, rat tail (Upstate 08-115) (rat) (UniProt P02454) (assay: dried collagen assay).
rat collagen, acid soluble, type I, rat tail (Upstate 08-115) (rat), sequence (P02454 152-1207, chain 1 of 2): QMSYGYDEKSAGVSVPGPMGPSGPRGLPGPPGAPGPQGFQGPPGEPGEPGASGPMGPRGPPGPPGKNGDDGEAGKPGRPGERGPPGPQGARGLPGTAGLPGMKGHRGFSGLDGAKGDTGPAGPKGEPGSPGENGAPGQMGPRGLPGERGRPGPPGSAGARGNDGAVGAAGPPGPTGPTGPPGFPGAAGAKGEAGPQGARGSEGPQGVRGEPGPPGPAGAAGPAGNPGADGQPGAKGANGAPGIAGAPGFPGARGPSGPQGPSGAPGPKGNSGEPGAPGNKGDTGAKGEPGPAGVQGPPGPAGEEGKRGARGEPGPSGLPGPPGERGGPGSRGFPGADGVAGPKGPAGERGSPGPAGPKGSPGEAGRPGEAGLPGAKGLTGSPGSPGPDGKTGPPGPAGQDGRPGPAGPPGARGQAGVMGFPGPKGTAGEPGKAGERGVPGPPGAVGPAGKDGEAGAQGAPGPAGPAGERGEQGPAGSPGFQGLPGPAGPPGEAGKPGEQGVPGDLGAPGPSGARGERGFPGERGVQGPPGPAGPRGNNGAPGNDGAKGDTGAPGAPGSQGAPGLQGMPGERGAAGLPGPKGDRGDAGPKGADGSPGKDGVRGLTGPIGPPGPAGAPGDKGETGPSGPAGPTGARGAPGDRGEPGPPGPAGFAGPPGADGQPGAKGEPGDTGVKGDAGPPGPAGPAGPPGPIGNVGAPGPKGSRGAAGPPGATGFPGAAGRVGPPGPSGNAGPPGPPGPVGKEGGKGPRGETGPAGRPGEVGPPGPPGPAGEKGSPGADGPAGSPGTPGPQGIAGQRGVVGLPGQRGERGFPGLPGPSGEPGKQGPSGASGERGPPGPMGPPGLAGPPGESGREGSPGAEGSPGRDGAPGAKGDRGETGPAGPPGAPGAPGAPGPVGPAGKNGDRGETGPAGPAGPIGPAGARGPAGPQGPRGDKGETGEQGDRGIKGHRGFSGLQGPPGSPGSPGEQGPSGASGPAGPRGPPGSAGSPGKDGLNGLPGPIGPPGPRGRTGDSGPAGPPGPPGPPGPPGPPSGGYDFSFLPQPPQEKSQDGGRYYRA
rat collagen, acid soluble, type I, rat tail (Upstate 08-115) (rat), sequence (P02466 86-1125, chain 2 of 2, further chain): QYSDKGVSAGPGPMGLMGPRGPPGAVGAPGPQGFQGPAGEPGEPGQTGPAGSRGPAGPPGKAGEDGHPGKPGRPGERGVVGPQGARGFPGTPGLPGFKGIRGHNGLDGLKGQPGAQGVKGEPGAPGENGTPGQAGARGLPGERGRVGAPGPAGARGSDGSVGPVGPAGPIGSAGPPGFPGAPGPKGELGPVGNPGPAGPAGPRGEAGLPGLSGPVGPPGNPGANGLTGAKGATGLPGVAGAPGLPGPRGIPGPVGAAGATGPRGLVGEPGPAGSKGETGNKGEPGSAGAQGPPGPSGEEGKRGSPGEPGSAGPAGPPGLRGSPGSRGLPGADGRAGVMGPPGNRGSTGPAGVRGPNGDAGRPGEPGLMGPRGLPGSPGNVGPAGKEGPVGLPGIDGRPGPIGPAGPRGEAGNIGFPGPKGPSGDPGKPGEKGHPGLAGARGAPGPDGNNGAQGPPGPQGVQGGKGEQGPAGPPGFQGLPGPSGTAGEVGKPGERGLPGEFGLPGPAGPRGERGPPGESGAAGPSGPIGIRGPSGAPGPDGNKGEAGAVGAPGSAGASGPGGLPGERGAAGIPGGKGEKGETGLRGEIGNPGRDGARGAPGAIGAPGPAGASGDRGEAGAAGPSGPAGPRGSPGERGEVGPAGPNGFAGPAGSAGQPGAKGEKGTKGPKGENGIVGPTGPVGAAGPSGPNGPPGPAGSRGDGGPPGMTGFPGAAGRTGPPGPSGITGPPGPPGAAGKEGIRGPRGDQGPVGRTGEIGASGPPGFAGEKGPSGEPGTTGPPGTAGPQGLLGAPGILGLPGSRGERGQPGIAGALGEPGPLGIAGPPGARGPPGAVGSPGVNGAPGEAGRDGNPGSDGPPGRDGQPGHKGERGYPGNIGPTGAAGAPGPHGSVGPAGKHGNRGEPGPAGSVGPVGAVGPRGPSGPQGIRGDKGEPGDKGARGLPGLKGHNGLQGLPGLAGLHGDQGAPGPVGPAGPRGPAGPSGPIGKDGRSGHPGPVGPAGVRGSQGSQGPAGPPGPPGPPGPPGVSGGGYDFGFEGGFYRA

Q: For [dY][dH][dA][dC][dY][dQ][dA]G[dC][dW][dI][dW] (disulfide 4-9 (inferred); not fully specified (C-terminus)) [SEQ ID NO 163], which % bound is on record?
A: 53%

Q: Which % bound does the source give for B1 here?
A: 4%

Q: For B2, which % bound is on record?
A: 3%

Q: Which % bound does the source give for B3 here?
A: 2%

Q: For B4, which % bound is on record?
A: 4%

Q: For B5, which % bound is on record?
A: 2%

Q: How did the % bound turn out when B6 was run?
A: 2%

Q: How did the % bound turn out when {Gd^T″}-GQWHCTTRFPHAYCLYG (disulfide 5-14 (inferred)) [Compound ID 878] was run?
A: 9%

Q: For {Gd^T″}-GQWHCTTD[Phe(4-CN)]PHHYCLYG (disulfide 5-14 (inferred)) [Compound ID 883], which % bound is on record?
A: 2%

Q: Which % bound does the source give for {Gd^T″}-GQWHCTTD[Phe(3,4-(OMe)2)]PHHYCLYG (disulfide 5-14 (inferred)) [Compound ID 893] here?
A: 2%

Q: {Gd^T″}-GQWHCTTRFPHH[dF]CLYG (disulfide 5-14 (inferred); not fully specified (C-terminus)) [Compound ID 901] was tested. Which % bound did it give?
A: 2%

Q: With B7 as the binder, how does the % bound read?
A: 5%

Q: For {Gd^T″}-GQWHCTTLFPHH[dY]CLYG (disulfide 5-14 (inferred); not fully specified (C-terminus)) [Compound ID 907], which % bound is on record?
A: 1%

Q: How did the % bound turn out when Cbz-GQWHCT[Dap](GdDTPA‑thiourea)RFPHHYCLYG (disulfide 5-14 (inferred); also: gadolinium complex (GdDTPA)) [Compound ID 939] was run?
A: 5%

Q: With Cbz-GQWHCT[Orn](GdDTPA‑thiourea)RFPHHYCLYG (disulfide 5-14 (inferred); also: gadolinium complex (GdDTPA)) [Compound ID 941] as the binder, how does the % bound read?
A: 5%
